Where two headings read alike, the source gives them in different places.
Key:
HAdV-D serotypes = experiment: Infection assay (hexon staining), HAdV species D; type: cell-based, human adenovirus; details: 15 µM HD5, A549 cells, hexon staining at ~48 h, vs. no defensin; upper limit 200%
Protocol: To determine whether sensitivity to α-defensins is a general property of HAdVs, serotypes representative of HAdV species A–F were tested for infectivity in the presence of 15 µM HD5 or HNP1 (Figure 1). Wild type HAdVs rather than vectors were used for these studies, and infectivity was assessed by staining for hexon production. […] These studies indicate that sensitivity to α-defensins is species specific. In addition, particular HAdV serotypes are not equally sensitive to all defensins, indicating defensin sequence specificity as well.
Figure 1 Sensitivity to neutralization by alpha-defensins is AdV species specific. HAdVs were incubated with 15 µM HD5 (A) or HNP1 (B) and assessed for infectivity on A549 cells. Data are the mean of the percent infectivity compared to control cells infected with each virus in the absence of defensin for at least three independent experiments ± SD. The upper limit for quantification of this assay is 200%. […]
(§1) Prior to use in this assay, each virus stock was titrated on A549 cells. […] In parallel, wells were infected with two-fold serial dilutions of each virus to establish a standard curve for quantification with an upper limit of 200%. […] Total well fluorescence above background was quantified with ImageJ software. For each virus, samples were quantified by nonlinear regression against the standard curve using Prism software (GraphPad Software, Inc., La Jolla, CA).

HAdV-5 capsid = experiment: Virus-defensin equilibrium-binding assay, HAdV-5; design: species or system human adenovirus
Protocol: Neutralization of HAdV by α-defensins is dependent upon binding to the virus capsid, which can be disrupted in the presence of elevated concentrations of sodium chloride. To perform a more quantitative assessment of this interaction, increasing concentrations of HD5 were incubated with Ad5.eGFP to allow binding, and the virus/HD5 complex was then separated from unbound HD5 on a nycodenz gradient. Bound defensin was visualized after SDS-PAGE using a sensitive fluorescent total protein stain and quantified against a standard curve.
Figure 2 HD5 binding to HAdV. A) HD5 binding to a representative defensin-sensitive serotype (HAdV-5) was quantified by an equilibrium-binding assay. Data are the mean of the number of HD5 molecules bound per virion at the indicated HD5 concentrations from at least three independent experiments ± SD. Binding curves were fitted using Prism software. B) Binding of HD5 to additional defensin-sensitive (HAdV-7p) and resistant (HAdV-19c, -25p, -51p) serotypes expressed as a percent of HD5 bound to HAdV-5. Data are the mean of two or three independent experiments ± SD.
To measure HD5 binding to HAdV-5 and -51, HD5 was serially diluted in PBS and mixed with 5 µg purified virus. After 1 h incubation on ice, one half of each sample was separated by ultracentrifugation [209,000×g (avg.) for 2 hrs at 4°C] on a discontinuous gradient consisting of 300 µl of 30% nycodenz and 200 µl of 80% nycodenz in 50 mM NaCl, 20 mM HEPES pH 7.4 using an SW55ti rotor with adaptors (Beckman Coulter, Inc.). The visible virus band was collected. The other half of each sample was used to make a standard curve for quantification. All samples were boiled in reducing loading buffer and separated using a 16% PAGEgel (Expedeon, Inc., San Diego, CA) or 10–20% Tris-Tricine gel (Bio-Rad, Hercules, CA). The gels were stained with Deep Purple (GE Healthcare) and imaged on a Typhoon Trio. Virus bands were quantified using ImageQuant NT software (GE Healthcare). The amount of HD5 in each sample was normalized to protein V and hexon. The amount of HD5 in the centrifuged samples was then quantified against the standard curve using Prism software. Affinity and stoichiometry were estimated from the average data of at least three independent experiments using Prism software.

GYAR virus = experiment: Infection assay, GYAR virus; type: cell-based, human adenovirus; details: 5 µM HD5, A549 cells, at least three independent experiments
Protocol: Figure 6 Neutralization determinants are located in fiber and penton base. A) Schematic of chimeric viruses. Capsid proteins are depicted in the order in which they are encoded in the virus genome for HAdV-5 (white) and HAdV-19c (grey). The variable residues in fiber (GYAR and DTET) are indicated for each construct. B) Each of the chimeric viruses was incubated with 5 µM (grey) or 10 µM (black) HD5 and assessed for infectivity on A549 cells. Data are the mean of the percent infectivity compared to control cells infected with each virus in the absence of defensin for at least three independent experiments ± SD. The upper limit for quantification of this assay is 200%.
We then combined the GYAR substitution with the PB substitution in a single construct (PB/GYAR).
as §1, with “cells. A virus concentration was chosen to produce 50–70% maximal signal in the absence of defensin as described below.” for “cells.”

B1: HD5: human alpha-defensin; synthetic, obtained from Peptides International; three disulfide bonds (PDB 1ZMP) (peptide, UniProt Q01523 20-94, looked up)
Defensin alpha 5: ESLQERADEATTQKQSGEDNQDLAISFAGNGLSALRTSGSQARATCYCRTGRCATRESLSGVCEISGRLYRLCCR
modifications: Defensin-5
With B1 the “sensitivity to neutralization (infectivity)” value (HAdV-D serotypes) was “completely resistant to HD5-mediated neutralization and, in most cases, infection is actually enhanced”, the “95% confidence interval of HD5 molecules bound per virus particle at saturation” value (HAdV-5 capsid; 95% confidence interval) was 1603–3919 HD5 molecules and the Kd (HAdV-5 capsid; 95% confidence interval, read-out: 95% confidence interval of KD) was 2.8 to 26.2 µM. For the same molecule, the “level of HD5 binding (in words)” value (HAdV-5 capsid; HAdV-5) was “specific binding”, the Kd (HAdV-5 capsid; equilibrium binding, Ad5.eGFP, 1 h on ice in PBS, nycodenz gradient, at least three independent experiments, read-out: KD) was roughly 14.5 µM and the “sensitivity to HD5 neutralization compared to HAdV-5” value (GYAR virus) was “less sensitive”.

— publication PMC2891831, “Insight into the Mechanisms of Adenovirus Capsid Disassembly from Studies of Defensin Neutralization” (PLoS Pathogens, 2010)
